Test results taken from patent publication US20260098866A1 (REMEGEN, published 2026).
Values belong to the binder of their own block, whether it stands above or below them.

Assays:
telitacicept [1] = target: T1, telitacicept; assay: BLI (Octet RH16); biotinylated 1B11D2 on SA biosensors, telitacicept as analyte; kinetic fit
T1 construct: TACI-Fc fusion protein drug; also called Tai ai; TACI-Fc fusion protein
T1 chain: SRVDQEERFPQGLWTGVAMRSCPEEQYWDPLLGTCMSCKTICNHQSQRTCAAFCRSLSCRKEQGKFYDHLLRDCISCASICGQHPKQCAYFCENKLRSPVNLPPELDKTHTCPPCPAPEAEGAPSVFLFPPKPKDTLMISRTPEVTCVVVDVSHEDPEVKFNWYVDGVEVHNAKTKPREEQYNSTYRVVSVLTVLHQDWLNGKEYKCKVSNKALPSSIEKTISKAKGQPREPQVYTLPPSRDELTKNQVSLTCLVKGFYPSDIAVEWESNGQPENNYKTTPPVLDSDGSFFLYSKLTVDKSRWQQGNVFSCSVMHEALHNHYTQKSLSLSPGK
Protocol: An Octet RH16 molecular interaction analyzer (Sartorius) was used. An appropriate amount of antibody 1B11D2 reacted with EZ-Link Sulfo-NHS-LC-LC-Biotin ([…]) at room temperature for 30 min followed by centrifugation with a Zeba spin desalting column to collect the biotinylated antibody 1B11D2.
The biotinylated antibody 1B11D2 was immobilized on Octet SA Biosensors ([…]) and telitacicept at various concentrations was used as the analyte. The detection curve was fitted by kinetic analysis to obtain the results.

telitacicept [2] = target: T1, telitacicept; assay: competition ELISA; BLyS coated; 30 ng/ml telitacicept pre-incubated with 10-fold diluted supernatant; telitacicept bound to BLyS read with anti-human IgG Fc-HRP
Protocol: (§1) The hybridoma cells were cultured, and the supernatants were used for enzyme-linked immunosorbent assay (ELISA). BLyS (R&D Systems) was coated on a 96-well microplate and incubated at 4° C. overnight. The plate was blocked with 300 μl of 3% BSA-PBST per well and incubated at 37° C. for 3 h. The supernatants were diluted at ratios of 10-fold, 100-fold and 1000-fold with PBST and separately incubated with 30 ng/ml telitacicept for a given period. These mixtures were then added to the 96-well plate at 100 μl per well and incubated at 37° C. for 1 h. Goat anti-human IgG Fc-HRP (1:5000 dilution) was added at 100 μl per well and incubated at 37° C. for 1 h. 100 μL of substrate per well was added for color development, and the absorbance was read at 450 nm and 655 nm. Antibodies with high activity were screened based on the difference in absorbance between 450 nm and 655 nm, respectively.

telitacicept [3] = target: T1, telitacicept; assay: competition ELISA; BLyS coated; 30 ng/ml telitacicept pre-incubated with 100-fold diluted supernatant; telitacicept bound to BLyS read with anti-human IgG Fc-HRP
Protocol: as §1

telitacicept [4] = target: T1, telitacicept; assay: competition ELISA; BLyS coated; 30 ng/ml telitacicept pre-incubated with 1000-fold diluted supernatant; telitacicept bound to BLyS read with anti-human IgG Fc-HRP
Protocol: as §1

Kd (telitacicept [1]): 325 pM | koff (telitacicept [1]): 0.000105 s⁻¹ | kon (telitacicept [1]): 323000 M⁻¹ s⁻¹ | Absorbance (450 nm - 655 nm) (telitacicept [2]): 0.016 | Absorbance (450 nm - 655 nm) (telitacicept [3]): 0.141 | Absorbance (450 nm - 655 nm) (telitacicept [4]): 0.454
B1: antibody 1B11D2 (antibody, mouse IgG1, kappa, V domains shown)
VH: EVQLQQSGPELVKPGASVKISCKTSGYTFTEFSMHWVQQSHGKSLEWIGGINPNHGGSSYNQKFKGKATLTVDKSSSTAYMELRSLTSEDSAVYYCARRGDYYGNLYYAMDYWGQGTSVTVSS
VL: SIVMTQTPKFLLVSVGDSITITCKASQSVSNDVVWYQQKPGQSPKLLIYYASNRYTGVPDRFTGSGYGTDFTFTITTVQAEDLAVYFCQQDYSSPWAFGGGTKLEIKR
notes: Mouse hybridoma antibody, purified from the culture supernatant of cell line 1B11D2-1; The printed heavy and light chains start with what looks like a leader peptide (MGWSW..., MKSQT...); also called 1B11D2-1 (hybridoma cell line / culture supernatant); TACI antibody (1B11D2)

Absorbance (450 nm - 655 nm) (telitacicept [2]): 0.057 | Absorbance (450 nm - 655 nm) (telitacicept [3]): 0.215 | Absorbance (450 nm - 655 nm) (telitacicept [4]): 0.448
B2: antibody 7G12F8 (antibody, mouse IgG1, kappa, V domains shown)
VH: EVQLQQSGPELVRPGASVKKSCKTSGYTFTAYALHWVKQSHGTSLEWIGGINPNHGGVSYNQKFKDKATLTVDKSSSTAYMELRSLTSEDSAVYYCARFRWDLYYGMDYWGQGTSVIVAS
VL: QIVLTQSPAIISVSSGEKVTMPCSDNSNMIYMYWNLWKPGTSPKRWIYDTSRLASGVPARFSGSGFGTSFSLTVSSMEAEDAATYYCHQRSIYSWTFGGGTKLEIKR
notes: Mouse hybridoma antibody, purified from the culture supernatant of cell line 7G12F8-1; The printed chains seem to include a leader peptide, but no cleavage site is stated; also called 7G12F8-1 (hybridoma cell line / culture supernatant)

Absorbance (450 nm - 655 nm) (telitacicept [2]): 0.082 | Absorbance (450 nm - 655 nm) (telitacicept [3]): 0.242 | Absorbance (450 nm - 655 nm) (telitacicept [4]): 0.443
B3: antibody 12C9F3 (antibody, mouse IgG1, kappa, V domains shown)
VH: EVQLQQSGPELVKPGASVKISCKTSGYTFTEYAMHWVKQSHGKSLEWIGGINPNHGGTSNNQKFKGKATLTVDKSSSTAYMDFRSLTSEDSAVYYCARWGTDPFFAYWGQGTLVTVSA
VL: DIVMTQSHKFMSTSVGDRVSITCKASQDVSTAVAWYQQKPGQSPKLLIYWASTRHTGVPDRFTGSGSGTDYTLTITSVQAEDLTLYYCHQHYAPPWTFGGGTKLEIKR
notes: Mouse hybridoma antibody, purified from the culture supernatant of cell line 12C9F3-1; The printed chains seem to include a leader peptide, but no cleavage site is stated; also called 12C9F3-1 (hybridoma cell line / culture supernatant)
